Laboratory results taken from article PMC4137571 (Biomaterials, 2014).
Where “and” joins values, the source holds several entries; their conditions need not be identical. Equal values may be shown once.

Target: the molecule itself
Assay: SEC

B1: HEV P^+ (modified protruding (P) protein of hepatitis E virus with C-terminal cysteine-containing peptide) (domain or fragment)
chain: PTPSPAPSRPFSVLRANDVLWLSLTAAEYDQTTYGSSTNPMYVSDTVTLVNVATGAQAVARSLDWSKVTLDGRPLTTIQQYSKTFYVLPLRGKLSFWEAGTTKAGYPYNYNTTASDQILIENAAGHRVAISTYTTSLGAGPTSISAVGVLAPHSALAVLEDTIDYPCDCRGDCFC
In the case of B1, the “stoichiometry N” value is reported as 2 and 4.
